The nature of the series: protein stability index of a GFP-peptide fusion (GPS, HEK-293T) (PSI 1-6); higher = more stable. The settings on record: c terminus: a fixed tail appended.

± gives the standard deviation.
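Further: 24-mer peptide tiles fused after GFP, lentivirally expressed, FACS-sorted into six equal bins by GFP/DsRed ratio, decoded by Illumina sequencing, PSI is the read-weighted mean bin number.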

Take VIHRALDREQVSSYNITVTATDGG [PCDHGA10]: the protein stability index (treatment: DMSO) is 3.27 ± 0.23 and the protein stability index (treatment: MLN4924 1 uM, 8 h) came to 3.14 ± 0.28.

On to VIQPALPGQPLPGASVRGLHPVQK [TRAF3IP2], for which the protein stability index is 3.76 ± 0.34 (treatment: DMSO) and 3.66 ± 0.39 (treatment: MLN4924 1 uM, 8 h).

As for VISPVIQLQPTFTPMRVALAGTFH [NSDHL], the protein stability index runs as follows: (treatment: DMSO) 2.42 ± 0.54; (treatment: MLN4924 1 uM, 8 h) 2.1 ± 0.11.

VKARKQEIIKVTEQLIEAINNGDF [CAMK2D]: the protein stability index was 2.59 ± 0.28 (treatment: DMSO) and 2.93 ± 0.3 (treatment: MLN4924 1 uM, 8 h).

As to VKVHGLLKTFVKQTDHIKGIRQIT [GFOD1], the protein stability index was found to be 2.53 ± 0.38 (treatment: DMSO) and 2.34 ± 0.41 (treatment: MLN4924 1 uM, 8 h).

As to VKVVLIPVGQEIVIPFKVDTILKY [IQUB], the protein stability index worked out at 3.98 ± 0.88 (treatment: DMSO) and 2.5 ± 0.79 (treatment: MLN4924 1 uM, 8 h).

As to VLELLGPSLEDLFDLCDRTFSLKT [CSNK1G3], the protein stability index is, setting by setting: (treatment: DMSO) 2.38 ± 0.57; (treatment: MLN4924 1 uM, 8 h) 2.36 ± 0.48.

As to VLGINRAYGKNSLSKNLIKMLSKA [AUH], where the note is “treatment: MLN4924 1 uM, 8 h”, the protein stability index turned out to be 2.244 ± 0.021.

For the sequence VLIVDWDVHHGQGTQFTFDQDPSV [HDAC6], the protein stability index runs as follows: (treatment: DMSO) 2.32 ± 0.42; (treatment: MLN4924 1 uM, 8 h) 2.13 ± 0.049.

VLQIDNARLAADDFRVKYETELAM [KRT18]: the protein stability index came out at 3.04 ± 0.12 (treatment: DMSO) and 3.3 ± 0.33 (treatment: MLN4924 1 uM, 8 h).

Regarding VLRSRIRFIHLVTGCVLGSSGKVL [POMT2], the protein stability index came to 2.62 ± 0.59 (treatment: DMSO) and 2.63 ± 0.76 (treatment: MLN4924 1 uM, 8 h).

On to VLSDINLKKGESECQYYIDKLEYL [NET1], for which the protein stability index came out at 2.72 ± 0.18 (treatment: DMSO) and 2.94 ± 0.33 (treatment: MLN4924 1 uM, 8 h).

With VLSLACAGGHLAVVELLLAHGADP [ANKRD17], the protein stability index amounted to 2.3 ± 0.66 (treatment: DMSO) and 2.44 ± 0.95 (treatment: MLN4924 1 uM, 8 h).

For the sequence VLVHCEAGISRSPTICMAYLMKTK [DUSP5], the protein stability index runs as follows: (treatment: DMSO) 2.77 ± 0.61; (treatment: MLN4924 1 uM, 8 h) 2.39 ± 0.41.

Turning to VNNDKSISVQELMGCLGVAKEDGK [SMOC2], the protein stability index amounted to 4.47 ± 0.13 (treatment: DMSO) and 4.62 ± 0.19 (treatment: MLN4924 1 uM, 8 h).

In turn, VNVDNLLAAAVVQEHSNSVGGQDT [C18orf25] yielded a protein stability index (treatment: DMSO) of 5.05 ± 0.21 and a protein stability index (treatment: MLN4924 1 uM, 8 h) of 4.92 ± 0.43.

VPETIHDELQQSFQKSHNSLQRWE [PRIM1]: the protein stability index runs as follows: (treatment: DMSO) 3.88 ± 0.16; (treatment: MLN4924 1 uM, 8 h) 3.75 ± 0.24.

Regarding VPFVRVKREREVDEDSEPEREVRA [USP39], the protein stability index is, setting by setting: (treatment: DMSO) 5.15 ± 0.26; (treatment: MLN4924 1 uM, 8 h) 5.17 ± 0.14.

As for VPLGFHYETKYVVLSYLGLLSQEK [BCL2L13], the protein stability index by setting is: (treatment: DMSO) 3.25 ± 0.93; (treatment: MLN4924 1 uM, 8 h) 2.4 ± 0.91.

Consider VPSSGYGAVTASKHSNSPPLVTPP [SMTNL2], for which the protein stability index is 4.29 ± 0.14 (treatment: DMSO) and 4.16 ± 0.15 (treatment: MLN4924 1 uM, 8 h).

Consider VPTTPGPASGSTFRGRRDVSGSWE [RETREG3], for which the protein stability index is, setting by setting: (treatment: DMSO) 4.37 ± 0.2; (treatment: MLN4924 1 uM, 8 h) 4.44 ± 0.15.

As to VQTSVIGSNGYILNKPALQAQPLR [EHMT1], the protein stability index reads like this: (treatment: DMSO) 3.06 ± 0.34; (treatment: MLN4924 1 uM, 8 h) 3.17 ± 0.13.

Take VRLLLEFKAEVDPLSDKGTTPLQL [ASB7]: the protein stability index (treatment: DMSO) came to 2.16 ± 0.48 and the protein stability index (treatment: MLN4924 1 uM, 8 h) was 2.31 ± 0.4.

Take VRSTETVERDNMEEDNVEESEEEG [HDAC6]: the protein stability index amounted to 5.57 ± 0.45 (treatment: DMSO) and 5.72 ± 0.24 (treatment: MLN4924 1 uM, 8 h).

For VSEAGGSGRLSASWEPLSGPSTPS [FCHO1], the protein stability index was 4.54 ± 0.17 (treatment: DMSO) and 4.74 ± 0.2 (treatment: MLN4924 1 uM, 8 h).

For the sequence VSKVVKGGSSGKGTTLRGRSDADL [OAS1], the protein stability index is, setting by setting: (treatment: DMSO) 4.36 ± 0.11; (treatment: MLN4924 1 uM, 8 h) 4.48 ± 0.15.

Turning to VSRMRTQRAFSIQTPEQYYFCYKA [PTPN9], the protein stability index reads like this: (treatment: DMSO) 2.56 ± 0.18; (treatment: MLN4924 1 uM, 8 h) 2.43 ± 0.27.

Regarding VSVNLEAFSQAISAIQALRSSVSR [MED27], the protein stability index by setting is: (treatment: DMSO) 3.17 ± 0.15; (treatment: MLN4924 1 uM, 8 h) 3.24 ± 0.28.

On to VTLGGVLRQQLVVSKELRMYDEKA [KLHL13], for which the protein stability index reads like this: (treatment: DMSO) 2.95 ± 0.25; (treatment: MLN4924 1 uM, 8 h) 3.02 ± 0.41.

With VTLMVAKWTGDFFNKGIYDIHVGL [CLCN6], the protein stability index runs as follows: (treatment: DMSO) 2.46 ± 0.4; (treatment: MLN4924 1 uM, 8 h) 3.58 ± 0.26.

Consider VTLRQVLAAKERHCGELKRRLGLS [TPD52L2], for which the protein stability index (treatment: DMSO) amounted to 2.35 ± 0.28 and the protein stability index (treatment: MLN4924 1 uM, 8 h) was 2.67 ± 0.2.

Regarding VTQNSTAEPSRFSSSDSDFDDEEP [FCHO1], the protein stability index runs as follows: (treatment: DMSO) 5.52 ± 0.25; (treatment: MLN4924 1 uM, 8 h) 5.55 ± 0.14.

VTTHQPTNLVLPSNGSMHNYCPQQ [EDNRA]: the protein stability index (treatment: DMSO) is 3.75 ± 0.2 and the protein stability index (treatment: MLN4924 1 uM, 8 h) turned out to be 3.77 ± 0.056.

On to VVDKETDNMYRLAHFSPFLYYQSQ [PDZK1], for which the protein stability index (treatment: DMSO) was determined as 2.62 ± 0.35.

As to VVHVSFPEVTSALLESLNQQRLQG [ZBTB22], the protein stability index reads like this: (treatment: DMSO) 2.27 ± 0.28; (treatment: MLN4924 1 uM, 8 h) 2.41 ± 0.21.

With VVSSEGRQSRRQSVSRFFADSGAD [FBF1], the protein stability index runs as follows: (treatment: DMSO) 4.25 ± 0.11; (treatment: MLN4924 1 uM, 8 h) 4.44 ± 0.31.

As to VVVFKALVTTHHLMVHGNERFIQY [SNAP91], the protein stability index by setting is: (treatment: DMSO) 3.2 ± 0.42; (treatment: MLN4924 1 uM, 8 h) 3.02 ± 0.5.

The values are drawn from the supplement of paper PMC10567573.
